From patent US20140213513A1 (Sanofi, priority 2012, published 2014)
*1 amine or outer side, *2 acyl side, *3 side chain or, on linkers, in order; H or OH if unused. Where no end group is shown, it is not given here. Side-chain parts run from the residue outwards. [ ]: non-standard residue; d: D form. The star is where a group is joined. γGlu = O=C(O)[C@H](CCC(=O)[*:2])N[*:1]; Stearoyl = CCCCCCCCCCCCCCCCCC(=O)*; Palmitoyl = CCCCCCCCCCCCCCCC(=O)*; Aib = CC(C)(N)C(=O)O

What was measured:
Assay in all cases: cell-based or functional assay
human GLP-1 receptor = human GLP-1 receptor (human, UniProt P43220 24-463)
human GIP receptor = target: T1, human GIP receptor (human, UniProt P48546 22-466)
T1 sequence (looked up): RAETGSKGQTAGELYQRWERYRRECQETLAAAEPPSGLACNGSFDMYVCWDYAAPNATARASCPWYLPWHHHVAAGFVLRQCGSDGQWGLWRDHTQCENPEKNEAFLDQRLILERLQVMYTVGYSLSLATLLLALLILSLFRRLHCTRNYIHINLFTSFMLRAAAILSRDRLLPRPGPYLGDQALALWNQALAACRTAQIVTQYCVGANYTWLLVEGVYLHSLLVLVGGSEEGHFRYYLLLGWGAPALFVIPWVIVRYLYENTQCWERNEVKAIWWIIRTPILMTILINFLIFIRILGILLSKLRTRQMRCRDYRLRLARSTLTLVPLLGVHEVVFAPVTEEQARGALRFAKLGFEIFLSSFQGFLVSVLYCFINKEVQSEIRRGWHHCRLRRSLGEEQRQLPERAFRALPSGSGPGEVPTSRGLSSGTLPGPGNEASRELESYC

human glucagon receptor = human glucagon receptor (human, UniProt P47871 26-477)
Chain of human glucagon receptor (P47871 26-477): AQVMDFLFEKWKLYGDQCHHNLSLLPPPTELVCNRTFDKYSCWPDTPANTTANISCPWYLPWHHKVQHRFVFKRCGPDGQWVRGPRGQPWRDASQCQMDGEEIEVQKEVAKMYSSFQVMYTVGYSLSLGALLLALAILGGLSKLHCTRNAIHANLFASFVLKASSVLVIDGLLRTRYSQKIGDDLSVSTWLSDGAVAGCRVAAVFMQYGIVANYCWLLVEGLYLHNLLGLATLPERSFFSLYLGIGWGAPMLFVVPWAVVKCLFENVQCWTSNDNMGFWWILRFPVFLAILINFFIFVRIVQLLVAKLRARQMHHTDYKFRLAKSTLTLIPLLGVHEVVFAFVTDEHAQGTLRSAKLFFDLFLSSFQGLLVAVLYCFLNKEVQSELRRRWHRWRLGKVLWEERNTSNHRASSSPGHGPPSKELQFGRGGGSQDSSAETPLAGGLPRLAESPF

Molecule | EC50 hGLP-1 R (human GLP-1 receptor) | EC50 hGIP R (human GIP receptor) | EC50 hGLUC R (human glucagon receptor)
Tyr(1)Ile(12)-GLP1 (peptide) | 0.005 nM | 3.66 nM | –
Y[Aib]EGTFTSDLSIQK([γGlu-Palmitoyl])EEQAAHEFIEWLKR[Aib]GPSSGAPPPS-NH2 (N-terminus assumed; SMILES CCCCCCCCCCCCCCCC(=O)N[C@@H](CCC(=O)NCCCC[C@H](NC(=O)[C@H](CCC(N)=O)NC(=O)[C@@H](NC(=O)[C@H](CO)NC(=O)[C@H](CC(C)C)NC(=O)[C@H](CC(=O)O)NC(=O)[C@H](CO)NC(=O)[C@@H](NC(=O)[C@H](Cc1ccccc1)NC(=O)[C@@H](NC(=O)CNC(=O)[C@H](CCC(=O)O)NC(=O)C(C)(C)NC(=O)[C@@H](N)Cc1ccc(O)cc1)[C@@H](C)O)[C@@H](C)O)[C@@H](C)CC)C(=O)N[C@@H](CCC(=O)O)C(=O)N[C@@H](CCC(=O)O)C(=O)N[C@@H](CCC(N)=O)C(=O)N[C@@H](C)C(=O)N[C@@H](C)C(=O)N[C@@H](Cc1c[nH]cn1)C(=O)N[C@@H](CCC(=O)O)C(=O)N[C@@H](Cc1ccccc1)C(=O)N[C@H](C(=O)N[C@@H](CCC(=O)O)C(=O)N[C@@H](Cc1c[nH]c2ccccc12)C(=O)N[C@@H](CC(C)C)C(=O)N[C@@H](CCCCN)C(=O)N[C@@H](CCCNC(=N)N)C(=O)NC(C)(C)C(=O)NCC(=O)N1CCC[C@H]1C(=O)N[C@@H](CO)C(=O)N[C@@H](CO)C(=O)NCC(=O)N[C@@H](C)C(=O)N1CCC[C@H]1C(=O)N1CCC[C@H]1C(=O)N1CCC[C@H]1C(=O)N[C@@H](CO)C(N)=O)[C@@H](C)CC)C(=O)O) [exendin-4 peptide analogue SEQ ID NO: 38] | 0.009 nM | 0.0074 nM | 22.5 nM
Y[Aib]QGTFTSDLSKQK([γGlu-Stearoyl])DSKAAQDFIEWLKAGGPSSGAPPPS-NH2 (N-terminus assumed; SMILES CCCCCCCCCCCCCCCCCC(=O)N[C@@H](CCC(=O)NCCCC[C@H](NC(=O)[C@H](CCC(N)=O)NC(=O)[C@H](CCCCN)NC(=O)[C@H](CO)NC(=O)[C@H](CC(C)C)NC(=O)[C@H](CC(=O)O)NC(=O)[C@H](CO)NC(=O)[C@@H](NC(=O)[C@H](Cc1ccccc1)NC(=O)[C@@H](NC(=O)CNC(=O)[C@H](CCC(N)=O)NC(=O)C(C)(C)NC(=O)[C@@H](N)Cc1ccc(O)cc1)[C@@H](C)O)[C@@H](C)O)C(=O)N[C@@H](CC(=O)O)C(=O)N[C@@H](CO)C(=O)N[C@@H](CCCCN)C(=O)N[C@@H](C)C(=O)N[C@@H](C)C(=O)N[C@@H](CCC(N)=O)C(=O)N[C@@H](CC(=O)O)C(=O)N[C@@H](Cc1ccccc1)C(=O)N[C@H](C(=O)N[C@@H](CCC(=O)O)C(=O)N[C@@H](Cc1c[nH]c2ccccc12)C(=O)N[C@@H](CC(C)C)C(=O)N[C@@H](CCCCN)C(=O)N[C@@H](C)C(=O)NCC(=O)NCC(=O)N1CCC[C@H]1C(=O)N[C@@H](CO)C(=O)N[C@@H](CO)C(=O)NCC(=O)N[C@@H](C)C(=O)N1CCC[C@H]1C(=O)N1CCC[C@H]1C(=O)N1CCC[C@H]1C(=O)N[C@@H](CO)C(N)=O)[C@@H](C)CC)C(=O)O) [exendin-4 peptide analogue SEQ ID NO: 41] | 0.0241 nM | 0.186 nM | 0.0265 nM
YAEGTFTSDLSKQKEEEAVRLFIEWLKAGGPSSGAPPPS (Aib at 2; Lys14 side-chain NH2 acylated with (S)-4-Carboxy-4-octadecanoylamino-butyryl- (yE-x70); C-terminal amide) [exendin-4 peptide analogue SEQ ID NO: 65] | – | 0.012 nM | 26.8 nM
Y[Aib]QGTFTSDLSKQK([γGlu-Palmitoyl])ESKAAQEFIEWLKAGGPSSGAPPPS-NH2 (N-terminus assumed; SMILES CCCCCCCCCCCCCCCC(=O)N[C@@H](CCC(=O)NCCCC[C@H](NC(=O)[C@H](CCC(N)=O)NC(=O)[C@H](CCCCN)NC(=O)[C@H](CO)NC(=O)[C@H](CC(C)C)NC(=O)[C@H](CC(=O)O)NC(=O)[C@H](CO)NC(=O)[C@@H](NC(=O)[C@H](Cc1ccccc1)NC(=O)[C@@H](NC(=O)CNC(=O)[C@H](CCC(N)=O)NC(=O)C(C)(C)NC(=O)[C@@H](N)Cc1ccc(O)cc1)[C@@H](C)O)[C@@H](C)O)C(=O)N[C@@H](CCC(=O)O)C(=O)N[C@@H](CO)C(=O)N[C@@H](CCCCN)C(=O)N[C@@H](C)C(=O)N[C@@H](C)C(=O)N[C@@H](CCC(N)=O)C(=O)N[C@@H](CCC(=O)O)C(=O)N[C@@H](Cc1ccccc1)C(=O)N[C@H](C(=O)N[C@@H](CCC(=O)O)C(=O)N[C@@H](Cc1c[nH]c2ccccc12)C(=O)N[C@@H](CC(C)C)C(=O)N[C@@H](CCCCN)C(=O)N[C@@H](C)C(=O)NCC(=O)NCC(=O)N1CCC[C@H]1C(=O)N[C@@H](CO)C(=O)N[C@@H](CO)C(=O)NCC(=O)N[C@@H](C)C(=O)N1CCC[C@H]1C(=O)N1CCC[C@H]1C(=O)N1CCC[C@H]1C(=O)N[C@@H](CO)C(N)=O)[C@@H](C)CC)C(=O)O) [exendin-4 peptide analogue SEQ ID NO: 40] | 0.0055 nM | 0.0536 nM | 0.0226 nM
Y[Aib]QGTFTSDLSIQK([γGlu-Palmitoyl])EKRAALEFIEWLKNTGPSSGAPPPS-NH2 (N-terminus assumed; SMILES CCCCCCCCCCCCCCCC(=O)N[C@@H](CCC(=O)NCCCC[C@H](NC(=O)[C@H](CCC(N)=O)NC(=O)[C@@H](NC(=O)[C@H](CO)NC(=O)[C@H](CC(C)C)NC(=O)[C@H](CC(=O)O)NC(=O)[C@H](CO)NC(=O)[C@@H](NC(=O)[C@H](Cc1ccccc1)NC(=O)[C@@H](NC(=O)CNC(=O)[C@H](CCC(N)=O)NC(=O)C(C)(C)NC(=O)[C@@H](N)Cc1ccc(O)cc1)[C@@H](C)O)[C@@H](C)O)[C@@H](C)CC)C(=O)N[C@@H](CCC(=O)O)C(=O)N[C@@H](CCCCN)C(=O)N[C@@H](CCCNC(=N)N)C(=O)N[C@@H](C)C(=O)N[C@@H](C)C(=O)N[C@@H](CC(C)C)C(=O)N[C@@H](CCC(=O)O)C(=O)N[C@@H](Cc1ccccc1)C(=O)N[C@H](C(=O)N[C@@H](CCC(=O)O)C(=O)N[C@@H](Cc1c[nH]c2ccccc12)C(=O)N[C@@H](CC(C)C)C(=O)N[C@@H](CCCCN)C(=O)N[C@@H](CC(N)=O)C(=O)N[C@H](C(=O)NCC(=O)N1CCC[C@H]1C(=O)N[C@@H](CO)C(=O)N[C@@H](CO)C(=O)NCC(=O)N[C@@H](C)C(=O)N1CCC[C@H]1C(=O)N1CCC[C@H]1C(=O)N1CCC[C@H]1C(=O)N[C@@H](CO)C(N)=O)[C@@H](C)O)[C@@H](C)CC)C(=O)O) [exendin-4 peptide analogue SEQ ID NO: 33] | – | 0.0882 nM | 0.109 nM
Y[Aib]QGTFTSDLSKQK([γGlu-Palmitoyl])ESKAAQDFIEWLKAGGPSSGAPPPS-NH2 (N-terminus assumed; SMILES CCCCCCCCCCCCCCCC(=O)N[C@@H](CCC(=O)NCCCC[C@H](NC(=O)[C@H](CCC(N)=O)NC(=O)[C@H](CCCCN)NC(=O)[C@H](CO)NC(=O)[C@H](CC(C)C)NC(=O)[C@H](CC(=O)O)NC(=O)[C@H](CO)NC(=O)[C@@H](NC(=O)[C@H](Cc1ccccc1)NC(=O)[C@@H](NC(=O)CNC(=O)[C@H](CCC(N)=O)NC(=O)C(C)(C)NC(=O)[C@@H](N)Cc1ccc(O)cc1)[C@@H](C)O)[C@@H](C)O)C(=O)N[C@@H](CCC(=O)O)C(=O)N[C@@H](CO)C(=O)N[C@@H](CCCCN)C(=O)N[C@@H](C)C(=O)N[C@@H](C)C(=O)N[C@@H](CCC(N)=O)C(=O)N[C@@H](CC(=O)O)C(=O)N[C@@H](Cc1ccccc1)C(=O)N[C@H](C(=O)N[C@@H](CCC(=O)O)C(=O)N[C@@H](Cc1c[nH]c2ccccc12)C(=O)N[C@@H](CC(C)C)C(=O)N[C@@H](CCCCN)C(=O)N[C@@H](C)C(=O)NCC(=O)NCC(=O)N1CCC[C@H]1C(=O)N[C@@H](CO)C(=O)N[C@@H](CO)C(=O)NCC(=O)N[C@@H](C)C(=O)N1CCC[C@H]1C(=O)N1CCC[C@H]1C(=O)N1CCC[C@H]1C(=O)N[C@@H](CO)C(N)=O)[C@@H](C)CC)C(=O)O) [exendin-4 peptide analogue SEQ ID NO: 39] | 0.0045 nM | 0.0385 nM | 0.0192 nM
Y[Aib]QGTFTSDLSIQK([γGlu-Palmitoyl])EKLAA[Aib]EFIEWLKNTGPSSGAPPPS-NH2 (N-terminus assumed; SMILES CCCCCCCCCCCCCCCC(=O)N[C@@H](CCC(=O)NCCCC[C@H](NC(=O)[C@H](CCC(N)=O)NC(=O)[C@@H](NC(=O)[C@H](CO)NC(=O)[C@H](CC(C)C)NC(=O)[C@H](CC(=O)O)NC(=O)[C@H](CO)NC(=O)[C@@H](NC(=O)[C@H](Cc1ccccc1)NC(=O)[C@@H](NC(=O)CNC(=O)[C@H](CCC(N)=O)NC(=O)C(C)(C)NC(=O)[C@@H](N)Cc1ccc(O)cc1)[C@@H](C)O)[C@@H](C)O)[C@@H](C)CC)C(=O)N[C@@H](CCC(=O)O)C(=O)N[C@@H](CCCCN)C(=O)N[C@@H](CC(C)C)C(=O)N[C@@H](C)C(=O)N[C@@H](C)C(=O)NC(C)(C)C(=O)N[C@@H](CCC(=O)O)C(=O)N[C@@H](Cc1ccccc1)C(=O)N[C@H](C(=O)N[C@@H](CCC(=O)O)C(=O)N[C@@H](Cc1c[nH]c2ccccc12)C(=O)N[C@@H](CC(C)C)C(=O)N[C@@H](CCCCN)C(=O)N[C@@H](CC(N)=O)C(=O)N[C@H](C(=O)NCC(=O)N1CCC[C@H]1C(=O)N[C@@H](CO)C(=O)N[C@@H](CO)C(=O)NCC(=O)N[C@@H](C)C(=O)N1CCC[C@H]1C(=O)N1CCC[C@H]1C(=O)N1CCC[C@H]1C(=O)N[C@@H](CO)C(N)=O)[C@@H](C)O)[C@@H](C)CC)C(=O)O) [exendin-4 peptide analogue SEQ ID NO: 8] | 0.0087 nM | 0.026 nM | 0.803 nM
